Test [1] addresses T1, ACE2-Ig (extracellular domain of human ACE2 linked to the Fc domain of human IgG1) (human, UniProt Q9BYF1 18-740). Briefly: SPR.
Test [2] addresses T1, ACE2-Ig (extracellular domain of human …). In words: SPR. The source holds these as a separate data set.

T1 sequence (Q9BYF1 18-740): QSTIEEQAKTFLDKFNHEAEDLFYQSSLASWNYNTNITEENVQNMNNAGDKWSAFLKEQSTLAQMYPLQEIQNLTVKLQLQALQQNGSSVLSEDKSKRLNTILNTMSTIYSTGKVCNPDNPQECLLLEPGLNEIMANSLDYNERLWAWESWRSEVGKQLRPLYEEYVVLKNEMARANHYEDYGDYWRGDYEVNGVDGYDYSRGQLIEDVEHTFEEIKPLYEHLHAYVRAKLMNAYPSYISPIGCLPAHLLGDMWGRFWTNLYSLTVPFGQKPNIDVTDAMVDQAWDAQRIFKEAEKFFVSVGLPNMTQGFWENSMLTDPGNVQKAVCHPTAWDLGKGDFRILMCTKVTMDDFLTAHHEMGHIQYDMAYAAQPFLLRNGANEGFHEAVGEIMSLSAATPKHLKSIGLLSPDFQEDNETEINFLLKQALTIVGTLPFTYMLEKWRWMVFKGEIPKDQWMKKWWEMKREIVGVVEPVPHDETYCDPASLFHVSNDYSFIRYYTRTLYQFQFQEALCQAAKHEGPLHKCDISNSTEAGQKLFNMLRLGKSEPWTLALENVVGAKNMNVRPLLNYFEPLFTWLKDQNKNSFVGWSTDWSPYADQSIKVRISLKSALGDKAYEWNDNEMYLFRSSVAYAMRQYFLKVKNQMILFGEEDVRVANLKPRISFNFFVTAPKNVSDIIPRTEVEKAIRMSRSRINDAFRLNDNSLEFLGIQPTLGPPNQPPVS

B1: SARS-CoV S protein (natural protein)
chain: not shown
Take B1: the koff in test [1] was 0.00294 s⁻¹. The affinity in test [2], expressed as Kd, was 177 nM.

As usually defined, the koff is the first-order rate constant of dissociation. A word on the Kd: it is the free concentration of one partner at which half of the binding sites on the other are occupied at equilibrium, for simple one-to-one binding. A high value points to weaker binding.

The values above are taken from article PMC7265355 (2020).
